Measured values published in US20220002363A1, “COMPOSITIONS AND METHODS FOR TREATING PULMONARY DISEASE” (United States Government As Represented By The Department …, priority 2020, published 2022).
Entries after “also recorded” stand apart in the source; their conditions may differ.

Tested on: LPS-treated C57BL/6 mice
Test: Oropharyngeal LPS lung injury model in C57BL/6 mice treated with mut-sFasL
Format: in vivo, mouse
Settings: for pro-injury or pro-inflammatory effects: normal lungs / administered 24 hours after intratracheal LPS, any dose
Method: FIGS. 5A-E show the effects of mut-sFasL on markers of lung inflammation in LPS-treated mice. C57BL/6 mice received oropharyngeal instillations of either PBS or LPS, 2.5 μg/mL. Four hours later some of the mice received oropharyngeal instillations of PBS or mut-sFasL at concentrations of 10 and 100 ng/g and were euthanized 24 hours after the initial LPS/PBS instillations (“early” group). Other mice received the PBS or mut-sFasL (same dose range) 24 hours after LPS/PBS and were euthanized 48 hours after the original LPS instillation (“late” group). N=6 for the groups. In the “late” group, treatment with 100 ng/g mut-sFasL reduced BAL total cells (FIG. 5A), lung homogenate MPO activity (FIG. 5B), and the BAL concentrations of TNF-α, MIP-1β and MCP-1 (FIGS. 5C-E). Data were analyzed by 2-way ANOVA with Dunnet's post hoc analysis; comparisons made to 0 ng/mL for each condition. Data are reported as box plots, in which the box depicts the 25th to 75th percentiles and the lines the min to max range. *=P<0.05; **=P<0.01, ***P<0.001.
FIGS. 6A-D show the effects of mut-sFasL in LPS treated mice. C57BL/6 mice received oropharyngeal instillations of either PBS, or LPS, 2.5 μg/mL. Four hours later some of the mice received oropharyngeal instillations of PBS or mut-sFasL at concentrations of 10 and 100 ng/g and were euthanized 24 hours after the initial LPS/PBS instillations (“early” group). Other mice received the PBS or mut-sFasL (same dose range) 24 hours after LPS/PBS and were euthanized 48 hours after the original LPS instillation (“late” group). N=6 for all groups. […] The administration of mut-sFasL had no effect total BAL protein (FIG. 6B), BAL IgM (FIG. 6C) or total lung homogenate caspase 3/7 activity (FIG. 6D). Data are reported as box plots, in which the box depicts the 25th to 75th percentiles and the lines the min to max range. Data were analyzed by 2-way ANOVA with Dunnett's post hoc analysis; comparisons were made to 0 ng/mL for each condition.
Animal studies. Mice were housed in conventional cages with ad libitum access to tap water and standard chow, in humidity-controlled (50%) and temperature-controlled (22° C.-23° C.) rooms with 12 hours/12 hours light/dark cycles. In the morning, male C57BL/6J mice (Jackson Laboratories, Bar Harbor Me.) weighing […] were anesthetized with 4% inhaled isoflurane and randomized to treatment for one oropharyngeal instillations of either PBS, or LPS, 2.5 μg/mL (Sigma-Aldrich, St. Louis Mo.) (Time=0 hr). The PBS group was instilled first to avoid cross-contamination with LPS. The mice were allowed to recover from anesthesia, given full access to food and water. […] Some of the mice received oropharyngeal instillations of mut-sFasL at 4 hr and were euthanized at 24 hr (“early” group). Other mice received oropharyngeal mut-sFasL at 24 hours and were euthanized at 48 hr (“late” group). In both cases, mut-sFasL doses were 0, 30 and 100 ng/mL. The number of mice used per group was 6, and the total number of mice was 54.
Following instillations, the mice were monitored for signs of discomfort every 15 minutes during the first hour, and then every four hours during daytime. The primary monitoring parameters were loss of prone posture, loss of movement with mild physical stimulation, weight loss of >20% (weight was measured once per day) and severe respiratory distress. Secondary monitoring parameters included ruffled fur, nasal or ocular discharge and an abnormal respiratory pattern. The presence of one major parameter or two minor parameters was considered an indication for euthanasia, but no mice met these criteria. […]

[1] = LPS, 24 hr (early group), mut-sFasL 30
[2] = LPS, 24 hr (early group), mut-sFasL 100
[3] = LPS, 48 hr (late group), mut-sFasL 30
[4] = LPS, 48 hr (late group), mut-sFasL 100

B1: mut-sFasL: mutant sFasL molecule in which 8 charged amino acids in the 26 amino acid stalk region were changed to alanine (protein)
chain: QLFALQAALAALAASTSQMATASSLAKQIGHPSPPPEKKELRKVAHLTGKSNSRSMPLEWEDTYGIVLLSGVKYKKGGLVINETGLYFVYSKVYFRGQSCNNLPLSHKVYMRNSKYPQDLVMMEGKMMSYCTTGQMWARSSYLGAVFNLTSADHLYVNVSELSLVNFEESQTFFGLYKL
In the case of B1, the “BAL cytokine concentration IL-1β” value [1] is reported as 14.3 ± 10.6, the “BAL cytokine concentration KC” value [1] is reported as 118.4 ± 43.7 and the “BAL cytokine concentration MIP-1α” value [1] is reported as 47.9 ± 10.6. For the same molecule, the “BAL cytokine concentration MIP-2” value [1] was 78.0 ± 28.1, the “BAL cytokine concentration IL-1β” value [2] was 18.6 ± 5.5 and the “BAL cytokine concentration KC” value [2] was 154.4 ± 94.3. The “BAL cytokine concentration MIP-1α” value [2] was 85.3 ± 20.0, the “BAL cytokine concentration MIP-2” value [2] was 124.1 ± 29.1 and the “BAL cytokine concentration IL-1β” value [3] was 37.8 ± 23.3. The “BAL cytokine concentration KC” value [3] was 113.2 ± 55.8, the “BAL cytokine concentration MIP-1α” value [3] was 154.5 ± 78.7 and the “BAL cytokine concentration MIP-2” value [3] was 146.7 ± 72.7. For the same molecule, the “BAL cytokine concentration IL-1β” value [4] was 44.5 ± 23.1, the “BAL cytokine concentration KC” value [4] was 136.9 ± 51.9 and the “BAL cytokine concentration MIP-1α” value [4] was 153.9 ± 42.4. The “BAL cytokine concentration MIP-2” value [4] was 135.7 ± 29.9, the “BAL IgM” value (LPS-induced increase) was “did not affect; also recorded: had no effect” and the BAL total protein (LPS-induced increase) was “did not affect; also recorded: had no effect”. The “lung homogenate caspase-3/7 activity” value (LPS-induced increase) was “did not affect; also recorded: had no effect”, the “BAL IL-1β (in words)” value (LPS-treated mice) was “increase” and the “BAL KC (in words)” value (LPS-treated mice) was “not affected”. For the same molecule, the “BAL MIP-1α (in words)” value (LPS-treated mice) was “increase”, the “BAL MIP-2 (in words)” value (LPS-treated mice) was “not affected” and the weight loss (LPS-treated mice, percent change from initial weight) was “not affected; also recorded: Weight loss was similar regardless of treatment”. The “BAL cytokine concentration IL-1β” value (PBS group, mut-sFasL 30) was 0.2 ± 0.0, the “BAL cytokine concentration KC” value (PBS group, mut-sFasL 30) was 1.2 ± 0.6 and the “BAL cytokine concentration MIP-1α” value (PBS group, mut-sFasL 30) was 0.08 ± 0.03. The “BAL cytokine concentration MIP-2” value (PBS group, mut-sFasL 30) was 0.1 ± 0.0, the “BAL cytokine concentration IL-1β” value (PBS group, mut-sFasL 100) was 0.2 ± 0.1 and the “BAL cytokine concentration KC” value (PBS group, mut-sFasL 100) was 1.9 ± 0.9. The “BAL cytokine concentration MIP-1α” value (PBS group, mut-sFasL 100) was 0.29 ± 0.28, the “BAL cytokine concentration MIP-2” value (PBS group, mut-sFasL 100) was 2.3 ± 2.8 and the “lung apoptosis or permeability measurements” value (PBS-treated mice) was “did not lead to an increase in lung apoptosis or permeability measurements”. The “effect of early administration” value (early group (mut-sFasL 4 hours after LPS, euthanized 24 h)) was “no measurable effect”, the “BAL concentration of MCP-1” value (late group) was “decrease; also recorded: reduced” and the “BAL concentration of MIP-1β” value (late group) was “decrease; also recorded: reduced”. For the same molecule, the “BAL concentration of TNF-α” value (late group) was “decrease; also recorded: reduced”, the “BAL total cell counts” value (late group (mut-sFasL 24 h after LPS, euthanized 48 h), 100 ng/mL, 100 ng/g) was “decreased; also recorded: reduced” and the “total lung (homogenate) MPO activity” value (late group, doses of 30 and 100 ng/mL, 100 ng/g) was “significantly decreased; also recorded: reduced”. For the same molecule, the “pro-injury or pro-inflammatory effects” value was “did not have important pro-injury or pro-inflammatory effects at any dose” and the “pro-injury or pro-inflammatory effects” value (listed as sFasL with mutated stalk region) was “not injurious in normal lungs”.
